Data as given in article PMC9464147.
Values joined by “and” are separate entries in the source; they are usually repeats but may differ in a detail not shown here. Equal entries are not always repeated.

How the values were obtained:
[1] = biological target: Milk CA VI (carbonic anhydrase VI purified from human milk) (human) (UniProt P23280); experiment: SEC; analytical SEC, Superdex 200 5/150 GL, 50 µg protein, 0.1 M Na-acetate buffer pH 5.0, 0.1 ml/min, +12 °C; MW from a standard curve, oligomeric state calculated with a monomer MW of 33.57 kDa
[2] = biological target: Milk CA VI (carbonic anhydrase VI purified from human milk) (human) (UniProt P23280); experiment: SDS-PAGE without cross-linker; milk CA VI without DSS treatment (lane 7), boiled in sample buffer with SDS and reducing agent, SDS-PAGE, densitometry of bands
[3] = biological target: Milk CA VI (carbonic anhydrase VI purified from human milk) (human) (UniProt P23280); experiment: cross-linking; DSS in 25- and 50-fold molar excess over protein (Table 3: 50-fold), milk CA VI 0.25-2 mg/ml in 100 mM Na2HPO4, 0.15 M NaCl pH 7.5, RT 30 min, quenched with Tris-HCl; reducing SDS-PAGE, densitometry of bands
[4] = biological target: Milk CA VI (carbonic anhydrase VI purified from human milk) (human) (UniProt P23280); experiment: SEC; analytical SEC, Superdex 200 5/150 GL, 50 µg protein, 50 mM Tris-HCl pH 7.5, 0.1 ml/min, +12 °C; MW from a standard curve, oligomeric state calculated with a monomer MW of 33.57 kDa
[5] = biological target: Salivary CA VI (carbonic anhydrase VI purified from human saliva) (human) (UniProt P23280); experiment: SEC; analytical SEC, Superdex 200 5/150 GL, 50 µg protein, 0.1 M Na-acetate buffer pH 5.0, 0.1 ml/min, +12 °C; MW from a standard curve, oligomeric state calculated with a monomer MW of 33.57 kDa
[6] = biological target: Salivary CA VI (carbonic anhydrase VI purified from human saliva) (human) (UniProt P23280); experiment: SEC; analytical SEC, Superdex 200 5/150 GL, 50 µg protein, 50 mM Tris-HCl pH 7.5, 0.1 ml/min, +12 °C; MW from a standard curve, oligomeric state calculated with a monomer MW of 33.57 kDa

Substance: Milk CA VI (carbonic anhydrase VI purified from human milk) (from UniProt P23280 18-308) (enzyme)
- stoichiometry N [1]: 7
- % of the lane in the dimer band (no DSS) [2]: 9.67%
- % of the lane in the dimer band (0.25 mg/ml) [3]: 16.1%
- % of the lane in the dimer band (0.5 mg/ml) [3]: 9.88%
- % of the lane in the dimer band (0.75 mg/ml) [3]: 19.4%
- % of the lane in the dimer band (1 mg/ml) [3]: 17%
- % of the lane in the dimer band (1.5 mg/ml) [3]: 16.9%
- % of the lane in the dimer band (2 mg/ml) [3]: 19%
- % of the lane in the hexamer band (0.25 mg/ml) [3]: 22.3%
- % of the lane in the hexamer band (0.5 mg/ml) [3]: 12.8%
- % of the lane in the hexamer band (0.75 mg/ml) [3]: 20.3%
- % of the lane in the hexamer band (1 mg/ml) [3]: 23.5%
- % of the lane in the hexamer band (1.5 mg/ml) [3]: 20.4%
- % of the lane in the hexamer band (2 mg/ml) [3]: 20.8%
- % of the lane in the tetra- or pentamer band (0.25 mg/ml) [3]: 14.1%
- % of the lane in the tetra- or pentamer band (0.5 mg/ml) [3]: 10.2%
- % of the lane in the tetra- or pentamer band (0.75 mg/ml) [3]: 15.2%
- % of the lane in the tetra- or pentamer band (1 mg/ml) [3]: 13.2%
- % of the lane in the tetra- or pentamer band (1.5 mg/ml) [3]: 12.7%
- % of the lane in the tetra- or pentamer band (2 mg/ml) [3]: 12.1%
- stoichiometry N [3]: 5
- stoichiometry N ([3]; dimer band): 2
- stoichiometry N ([3]; hexamer band): 6
- stoichiometry N [4]: 15 and 6

Substance: Salivary CA VI (carbonic anhydrase VI purified from human saliva) (from UniProt P23280 18-308) (enzyme)
- stoichiometry N [5]: 6
- stoichiometry N [6]: 14
